Where two headings read alike, the source gives them in different places. Bridge positions count the residues as written; N and C are the ends. Ends that are not written are not given here.

We go through two proteins from publication PMC2907741 (Biochemistry, 2009).

Series [1] deals with the molecule itself. Briefly: thioflavin T fluorescence aggregation assay.
Series [2] deals with the molecule itself. Briefly: thioflavin T fluorescence aggregation assay. This is another data set of the same source.

B1: 5 kDa fragment of plasma gelsolin (173-225), D187N (domain or fragment, human)
chain: ATEVPVSWESFNNGNCFILDLGNNIHQWCGSNSNRYERLKATQVSKGIRDNER
modifications: disulfide 16-29
With B1, in series [1], the binding result is recorded as “binds”.

B2: 8 kDa fragment of plasma gelsolin (173-242), D187N (domain or fragment, human)
chain: ATEVPVSWESFNNGNCFILDLGNNIHQWCGSNSNRYERLKATQVSKGIRDNERSGRARVHVSEEGTEPEA
modifications: disulfide 16-29
On to B2, for which the binding result in series [2] is “binds”.
